In the series the target is T1, Ac-FQPKKS(Ac)G-NH2 (alkylated acetyl-lysine analog of peptide 1).
T1 chain: FQPKXG

B1: human sirtuin 2 (SIRT2) enzyme (protein)
chain: MAEPDPSHPLETQAGKVQEAQDSDSDSEGGAAGGEADMDFLRNLFSQTLSLGSQKERLLDELTLEGVARYMQSERCRRVICLVGAGISTSAGIPDFRSPSTGLYDNLEKYHLPYPEAIFEISYFKKHPEPFFALAKELYPGQFKPTICHYFMRLLKDKGLLLRCYTQNIDTLERIAGLEQEDLVEAHGTFYTSHCVSASCRHEYPLSWMKEKIFSEVTPKCEDCQSLVKPDIVFFGESLPARFFSCMQSDFLKVDLLLVMGTSLQVQPFASLISKAPLSTPRLLINKEKAGQSDPFLGMIMGLGGGMDFDSKKAYRDVAWLGECDQGCLALAELLGWKKELEDLVRREHASIDAQSGAGVPNPSTSASPKKSPPPAKDEARTTEREKPQ
For the protein B1, the deacetylation rate (SIRT2 assay, C18 analytical HPLC) (fold of the rate on the native peptide) amounted to 0.33 and the “enzymatic deacetylation (SIRT2 assay, HPLC peak of the deacetylated product)” value is “the sLys(Ac) residue in the alkylated peptide 1 was susceptible to enzymatic deacetylation, albeit to a lesser degree, compared to its native counterpart”.

(Values after patent US9309278.)
